These results are taken from US10472401B2, “Peptides and combination of peptides for use in immunotherapy against ovarian cancer and other cancers” (immatics biotechnologies GmbH, priority 2015, dated 2019).

The experiment addresses HLA-A*02:01 (Homo sapiens, UniProt P04439, D140Y/D185E/D98H/E176V/E277Q/G131W/G231S/I119V/I121R/I166T/I218V/L300P/L318F/N151K/N90K/P208A/P217A/Q86G/Q94H/R138H/R169H/T345S). As to the kind of experiment: MHC binding assay (UV-ligand exchange, ELISA of stabilized MHC complexes). The settings on record: MHC class I binding score; binding to HLA-A*02:01 ranged by peptide exchange yield (UV-ligand exchange, ELISA). The text has this: Candidate peptides for T cell based therapies according to the present invention were further tested for their MHC binding capacity (affinity). The individual peptide-MHC complexes were produced by UV-ligand exchange, where a UV-sensitive peptide is cleaved upon UV-irradiation, and exchanged with the peptide of interest as analyzed. Only peptide candidates that can effectively bind and stabilize the peptide-receptive MHC molecules prevent dissociation of the MHC complexes. To determine the yield of the exchange reaction, an ELISA was performed based on the detection of the light chain (β2m) of stabilized MHC complexes. The assay was performed as generally described in Rodenko et al. (Rodenko et al., 2006).
96 well MAXISorp plates (NUNC) were coated over night with 2 ug/ml streptavidin in PBS at room temperature, washed 4× and blocked for 1h at 37° C. in 2% BSA containing blocking buffer. […] Peptide-MHC monomers of the UV-exchange reaction were diluted 100 fold in blocking buffer. Samples were incubated for 1h at 37° C., washed four times, incubated with 2 ug/ml HRP conjugated anti-82m for 1h at 37° C., washed again and detected with TMB solution that is stopped with […]. Absorption was measured at 450 nm. Candidate peptides that show a high exchange yield (preferably higher than 50%, most preferred higher than 75%) are generally preferred for a generation and production of antibodies or fragments thereof, and/or T cell receptors or fragments thereof, as they show sufficient avidity to the MHC molecules and prevent dissociation of the MHC complexes.
Background: An ELISA detects its analyte on a solid surface through an enzyme-linked reagent.
As for “295 (VLDRESPNV; listed as Homo sapiens) [compound 295]”, the Peptide exchange entry was “″+++″ (≥50% = +++)”.

On to “85 (KMSELRVTL; listed as Homo sapiens) [compound 85]”, for which the Peptide exchange entry is listed as “″+++″ (≥50% = +++)”.

Regarding “331 (KVDTVWVNV; listed as Homo sapiens) [compound 331]”, the Peptide exchange result is recorded as “″+++″ (≥50% = +++)”.

Turning to “43 (VLSSLEINI; listed as Homo sapiens) [compound 43]”, the Peptide exchange result was “″++″ (≥20% = ++)”.

As to “387 (ALFQATAEV; listed as Homo sapiens) [compound 387]”, the Peptide exchange result is recorded as “″++++″ (≥75% = ++++)”.

Regarding “162 (YQQAQVPSV; listed as Homo sapiens) [compound 162]”, the Peptide exchange result was “″+++″ (≥50% = +++)”.

Take “238 (YLISFQTHI; listed as Homo sapiens) [compound 238]”: the Peptide exchange result is “″+++″ (≥50% = +++)”.

As to “26 (ALLELAEEL; listed as Homo sapiens) [compound 26]”, the Peptide exchange result was “″+++″ (≥50% = +++)”.

As for “515 (LLQELVLFL; listed as Homo sapiens) [compound 515]”, the Peptide exchange result is “″+++″ (≥50% = +++)”.

In the case of “23 (VLLDDIFAQL; listed as Homo sapiens) [compound 23]”, the Peptide exchange result is reported as “″+++″ (≥50% = +++)”.

On to “241 (SLVEVNPAYSV; listed as Homo sapiens) [compound 241]”, for which the Peptide exchange entry is recorded as “″+++″ (≥50% = +++)”.

Consider “545 (LLADLLHNV; listed as Homo sapiens) [compound 545]”, for which the Peptide exchange result is recorded as “″+++″ (≥50% = +++)”.

As to “246 (LLWEVVSQL; listed as Homo sapiens) [compound 246]”, the Peptide exchange entry is on record as “″+++″ (≥50% = +++)”.

As for “276 (ALFTFSPLTV; listed as Homo sapiens) [compound 276]”, the Peptide exchange entry is recorded as “″+++″ (≥50% = +++)”.

For the substance “198 (KTINKVPTV; listed as Homo sapiens) [compound 198]”, the Peptide exchange result was “″+++″ (≥50% = +++)”.

Consider “344 (YLQDQHLLLTV; listed as Homo sapiens) [compound 344]”, for which the Peptide exchange entry is reported as “″+++″ (≥50% = +++)”.

“467 (FLAKDFNFL; listed as Homo sapiens) [compound 467]”: the Peptide exchange entry was “″+++″ (≥50% = +++)”.

“240 (ILLEQAFYL; listed as Homo sapiens) [compound 240]”: the Peptide exchange result was “″+++″ (≥50% = +++)”.

For “375 (SLTETIEGV; listed as Homo sapiens) [compound 375]”, the Peptide exchange entry is recorded as “″++″ (≥20% = ++)”.

Consider “129 (GLLDGGVDILL; listed as Homo sapiens) [compound 129]”, for which the Peptide exchange entry is “″+++″ (≥50% = +++)”.

Take “252 (LLIGTDVSL; listed as Homo sapiens) [compound 252]”: the Peptide exchange entry is listed as “″+++″ (≥50% = +++)”.

For “42 (VLLQKIVSA; listed as Homo sapiens) [compound 42]”, the Peptide exchange result was “″+++″ (≥50% = +++)”.

Consider “285 (QLLHVGVTV; listed as Homo sapiens) [compound 285]”, for which the Peptide exchange result is “″+++″ (≥50% = +++)”.

In the case of “316 (ILLERLWYV; listed as Homo sapiens) [compound 316]”, the Peptide exchange result is recorded as “″+++″ (≥50% = +++)”.

Regarding “553 (SLLNQDLHWSL; listed as Homo sapiens) [compound 553]”, the Peptide exchange entry is reported as “″++++″ (≥75% = ++++)”.

On to “447 (QLVPALAKV; listed as Homo sapiens) [compound 447]”, for which the Peptide exchange result is “″++″ (≥20% = ++)”.

As to “82 (FLSSVTYNL; listed as Homo sapiens) [compound 82]”, the Peptide exchange result is recorded as “″+++″ (≥50% = +++)”.

Regarding “297 (VLADIELAQA; listed as Homo sapiens) [compound 297]”, the Peptide exchange result is “″+++″ (≥50% = +++)”.

As for “221 (ALYEEGLLL; listed as Homo sapiens) [compound 221]”, the Peptide exchange entry is given as “″++″ (≥20% = ++)”.

Consider “579 (NLMEMVAQL; listed as Homo sapiens) [compound 579]”, for which the Peptide exchange result is “″++″ (≥20% = ++)”.

As to “215 (QLINHLHAV; listed as Homo sapiens) [compound 215]”, the Peptide exchange entry is listed as “″+++″ (≥50% = +++)”.

“317 (SLAALVVHV; listed as Homo sapiens) [compound 317]”: the Peptide exchange result is reported as “″+++″ (≥50% = +++)”.

With “277 (LLPPLESLATV; listed as Homo sapiens) [compound 277]”, the Peptide exchange result is reported as “″++″ (≥20% = ++)”.

With “463 (SLVESHLSDQLTL; listed as Homo sapiens) [compound 463]”, the Peptide exchange entry is listed as “″+++″ (≥50% = +++)”.

As to “202 (ALLDQQGSRWTL; listed as Homo sapiens) [compound 202]”, the Peptide exchange entry is recorded as “″+++″ (≥50% = +++)”.

Turning to “127 (KIGDEPPKV; listed as Homo sapiens) [compound 127]”, the Peptide exchange result is “″++″ (≥20% = ++)”.

Regarding “431 (SLVNVVPKL; listed as Homo sapiens) [compound 431]”, the Peptide exchange entry is listed as “″++″ (≥20% = ++)”.

“80 (FLYDNLVESL; listed as Homo sapiens) [compound 80]”: the Peptide exchange result is reported as “″++″ (≥20% = ++)”.

Turning to “20 (RMIEYFIDV; listed as Homo sapiens) [compound 20]”, the Peptide exchange result was “″+++″ (≥50% = +++)”.

Regarding “354 (LILEGVDTV; listed as Homo sapiens) [compound 354]”, the Peptide exchange entry was “″++″ (≥20% = ++)”.

As for “607 (RLYSGISGLEL; listed as Homo sapiens) [compound 607]”, the Peptide exchange entry was “″+++″ (≥50% = +++)”.

For “605 (KLYEAVPQL; listed as Homo sapiens) [compound 605]”, the Peptide exchange entry is reported as “″+++″ (≥50% = +++)”.

Regarding “392 (ALLHPQGFEV; listed as Homo sapiens) [compound 392]”, the Peptide exchange entry is listed as “″++″ (≥20% = ++)”.

Take “475 (LLLNEEALAQI; listed as Homo sapiens) [compound 475]”: the Peptide exchange entry is “″+++″ (≥50% = +++)”.

On to “446 (QLIPALAKV; listed as Homo sapiens) [compound 446]”, for which the Peptide exchange entry is recorded as “″+++″ (≥50% = +++)”.

For “226 (MLYVVPIYL; listed as Homo sapiens) [compound 226]”, the Peptide exchange result is listed as “″++″ (≥20% = ++)”.

Regarding “593 (GLPRFGIEMV; listed as Homo sapiens) [compound 593]”, the Peptide exchange result is recorded as “″+++″ (≥50% = +++)”.

In the case of “209 (KLIESKHEV; listed as Homo sapiens) [compound 209]”, the Peptide exchange entry was “″++″ (≥20% = ++)”.

Turning to “476 (ALMERTGYSMV; listed as Homo sapiens) [compound 476]”, the Peptide exchange result is reported as “″+++″ (≥50% = +++)”.

As to “365 (YVIDQGETDVYV; listed as Homo sapiens) [compound 365]”, the Peptide exchange entry is given as “″+++″ (≥50% = +++)”.

Take “227 (ALMNTLLYL; listed as Homo sapiens) [compound 227]”: the Peptide exchange result is listed as “″++″ (≥20% = ++)”.

As to “455 (SLLKEPQKVQL; listed as Homo sapiens) [compound 455]”, the Peptide exchange entry was “″++″ (≥20% = ++)”.

For the substance “22 (IMEENPGIFAV; listed as Homo sapiens) [compound 22]”, the Peptide exchange result was “″+++″ (≥50% = +++)”.

In the case of “149 (NLLELFVQL; listed as Homo sapiens) [compound 149]”, the Peptide exchange entry is given as “″+++″ (≥50% = +++)”.

Turning to “554 (LLMPSSEDLLL; listed as Homo sapiens) [compound 554]”, the Peptide exchange result is “″+++″ (≥50% = +++)”.

For “153 (FLIANVLYL; listed as Homo sapiens) [compound 153]”, the Peptide exchange result is on record as “″+″ (≥10% = +)”.

With “83 (ILAPTVMMI; listed as Homo sapiens) [compound 83]”, the Peptide exchange entry is reported as “″+++″ (≥50% = +++)”.

Turning to “222 (NLIENVQRL; listed as Homo sapiens) [compound 222]”, the Peptide exchange result is listed as “″++″ (≥20% = ++)”.

“458 (SLIDKLYNI; listed as Homo sapiens) [compound 458]”: the Peptide exchange entry was “″++″ (≥20% = ++)”.

Take “615 (VLPPDTDPA; listed as Homo sapiens) [compound 615]”: the Peptide exchange entry is “″++″ (≥20% = ++)”.

With “148 (ALNPEIVSV; listed as Homo sapiens) [compound 148]”, the Peptide exchange result was “″++″ (≥20% = ++)”.

Turning to “461 (VMFRTPLASV; listed as Homo sapiens) [compound 461]”, the Peptide exchange result is listed as “″++″ (≥20% = ++)”.

Regarding “355 (SIQQSIERLLV; listed as Homo sapiens) [compound 355]”, the Peptide exchange entry was “″++″ (≥20% = ++)”.

In the case of “364 (LLQNEQFEL; listed as Homo sapiens) [compound 364]”, the Peptide exchange result is listed as “″+++″ (≥50% = +++)”.

On to “539 (ALFDAQAQV; listed as Homo sapiens) [compound 539]”, for which the Peptide exchange result is listed as “″+++″ (≥50% = +++)”.
